# Data from patent publication US20210145976A1 (ARO BIOTHERAPEUTICS, published 2021).
# Where a chain is given by its changes, count along the chain named.
# B1: SEQ ID NO 154 (designed binder)
# chain: MLPAPKNLVVSRVTEDSARLSWTAPDAAFDSFFIPYAEPRPDGEAIVLTVPGSERSYDLTGLKPGTEYSVLIHGVKGGLLSSPLSAIFTT
# notes: FN3 domain
# B2: SEQ ID NO 110 (designed binder)
# chain: MLPAPKNLVVSRVTEDSARLSWTAPDAAFDSFFIHYHEWWEAGEAIVLTVPGSERSYDLTGLKPGTEYLVDIPGVKGGDLSVPLSAIFTT
# notes: FN3 domain
# B3: SEQ ID NO 133 (designed binder)
# chain: MLPAPKNLVVSRVTEDSARLSWTAPDAAFDSFPIVYGEAWVTGEAIVLTVPGSERSYDLTGLKPGTEYDVWIEGVKGGELSWPLSAIFTT
# notes: FN3 domain
# B4: SEQ ID NO 160 (designed binder)
# chain: B3 chain with P33N, V35A, A39W, W40R, V41Q, T42H, W71F, E73D, E79N
# notes: FN3 domain
# B5: SEQ ID NO 116 (designed binder)
# chain: B1 chain with F33S, P35A, A37S, P39V, P41Y, S69V, L71P, H73G, L79G, L80S
# notes: FN3 domain
# B6: SEQ ID NO 156 (designed binder)
# chain: MLPAPKNLVVSRVTEDSARLSWTAPDAAFDSFAIEYFENLGIGEAIVLTVPGSERSYDLTGLKPGTEYVVNIYGVKGGWLSSPLSAIFTT
# notes: FN3 domain
# B7: SEQ ID NO 150 (designed binder)
# chain: B1 chain with F33P, P35A, R40S, D42T, L79H, S82D
# notes: FN3 domain
# B8: SEQ ID NO 101 (designed binder)
# chain: MLPAPKNLVVSRVTEDSARLSWTAPDAAFDSFAIDYDEPINSGEAIVLTVPGSERSYDLTGPKPGTEYEVEIYGVKGGYLSRPLSAIFTT
# notes: FN3 domain
# B9: SEQ ID NO 166 (designed binder)
# chain: B3 chain with P33T, V35L, G37N, A39I, W40Q, V41N, T42V
# notes: FN3 domain
# B10: SEQ ID NO 165 (designed binder)
# chain: B1 chain with P5R, R40S, D42T, L79H, S82D, F88S
# notes: FN3 domain
# B11: SEQ ID NO 98 (designed binder)
# chain: B3 chain with V13I, P33D, V35P, A39F, W40D, V41T, T42I, W71Y, E79H
# notes: FN3 domain
# B12: SEQ ID NO 125 (designed binder)
# chain: B6 chain with A33V, N39F, L40V, I42E, V69D, N71G, W79S
# notes: FN3 domain
# B13: SEQ ID NO 137 (designed binder)
# chain: MLPAPKNLVVSRVTEDSARLSWTAPDAAFDSFEIEYDEPSVAGEAIVLTVPGSERSYDLTGLKPGTEYRVFIWGVKGGNQSWPLSAIFTT
# notes: FN3 domain
# B14: SEQ ID NO 132 (designed binder)
# chain: B3 chain with P33T, G37A, A39V, W40T, V41Y, T42D, W71F
# notes: FN3 domain
# B15: SEQ ID NO 86 (designed binder)
# chain: MLPAPKNLVVSRVTEDSARLSWTAPDAAFDSFIIWYAEWVNDGEAIVLTVPGSERSYDLTGLKPGTEYRVEITGVKGGTWSRPLSAIFTT
# notes: FN3 domain
# B16: SEQ ID NO 141 (designed binder)
# chain: B6 chain with A33V, N39Q, L40F, G41N, I42L, V69L, N71G, S82H
# notes: FN3 domain
# B17: SEQ ID NO 117 (designed binder)
# chain: B3 chain with P33T, V35P, W40F, V41N, T42P, W71F, E79T
# notes: FN3 domain
# B18: SEQ ID NO 158 (designed binder)
# chain: MLPAPKNLVVSRVTEDSARLSWTAPDAAFDSFIIDYLELDDYGEAIVLTVPGSERSYDLTGLKPGTEYPVYIYGVKGGLPSTPLSAIFTT
# notes: FN3 domain
# B19: SEQ ID NO 122 (designed binder)
# chain: MLPAPKNLVVSRVTEDSARLSWTAPDAAFDSFQIPYWEQSLGGEAIVLTVPGSERSYDLTGLKPGTEYEVWIEGVKGGDLSFPLSAISTT
# notes: FN3 domain
# B20: SEQ ID NO 93 (designed binder)
# chain: B18 chain with I33Y, D35G, L39P, D40G, Y42N, P69N, Y71S, Y73G, P80G, T82Y
# notes: FN3 domain
# B21: SEQ ID NO 159 (designed binder)
# chain: B1 chain with F33L, P39T, R40S, D42S, L79R, L80N, S82D
# notes: FN3 domain
# B22: SEQ ID NO 138 (designed binder)
# chain: B2 chain with H35K, H37I, E41A, A42D, D71E, P73Y, D79R, L80Q, V82Y
# notes: FN3 domain
# B23: SEQ ID NO 151 (designed binder)
# chain: B1 chain with R40S, D42T, S69G, L71V, H73L, L79Y, L80G, S82D
# notes: FN3 domain
# B24: SEQ ID NO 108 (designed binder)
# chain: B3 chain with P33T, V35I, A39V, W40N, V41P, T42Y, W71F, E79H
# notes: FN3 domain
# B25: SEQ ID NO 88 (designed binder)
# chain: B6 chain with A33W, N39W, L40T, G41V, I42G, V69Y, N71S, S82P
# notes: FN3 domain
# B26: SEQ ID NO 135 (designed binder)
# chain: MLPAPKNLVVSRVTEDSARLSWTAPDAAFDSFPISYYEMSGLGEAIVLTVPGSERSYDLTGLKPGTEYMVYIFGVKGGLNSLPLSAIFTT
# notes: FN3 domain
# B27: SEQ ID NO 167 (designed binder)
# chain: B1 chain with P35G, A37L, R40Q, D42P, S69N, L71T, H73Q, L79T, L80P, S82E
# notes: FN3 domain
# B28: SEQ ID NO 131 (designed binder)
# chain: B26 chain with P33S, S35D, M39G, S40K, L42Y, M69Q, Y71L, F73S, L79K, N80Y
# notes: FN3 domain
# B29: SEQ ID NO 123 (designed binder)
# chain: B3 chain with P33V, V35P, G37E, A39Y, W40L, V41Y, E79L, L80T
# notes: FN3 domain
# B30: SEQ ID NO 118 (designed binder)
# chain: B3 chain with P33R, V35L, A39V, W40D, V41P, T42W, E79K
# notes: FN3 domain
# B31: SEQ ID NO 144 (designed binder)
# chain: B1 chain with F33I, P39V, L79K, S82L
# notes: FN3 domain
# B32: SEQ ID NO 90 (designed binder)
# chain: MLPAPKNLVVSRVTEDSARLSWTAPDAAFDSFTIHYWEFDPPGEAIVLTVPGSERSYDLTGLKPGTEYTVYIEGVKGGWWSKPLSAIFTT
# notes: FN3 domain
# B33: SEQ ID NO 169 (designed binder)
# chain: B1 chain with P35G, A37L, R40Q, D42P, S69N, L71T, H73Q, L79F, L80P, S82V
# notes: FN3 domain
# B34: SEQ ID NO 147 (designed binder)
# chain: B1 chain with P35G, A37L, R40Q, D42P, L79R, L80N, S82D, F88S
# notes: FN3 domain
# B35: SEQ ID NO 82 (designed binder)
# chain: B6 chain with E35A, F37V, N39W, L40W, G41K, I42L, N71P, Y73P, W79G, L80H
# notes: FN3 domain
# B36: SEQ ID NO 145 (designed binder)
# chain: B1 chain with R40S, D42T, S69D, L71W, H73E, L79T, S82W
# notes: FN3 domain
# B37: SEQ ID NO 114 (designed binder)
# chain: B6 chain with F37W, N39A, L40V, I42S, V69H, N71Y, W79Y, S82L
# notes: FN3 domain
# B38: SEQ ID NO 105 (designed binder)
# chain: B26 chain with P33G, S35A, M39R, L42A, F73N, L79F, N80V, L82S
# notes: FN3 domain
# Biological target: T1, recombinant biotinylated CD71 extracellular domain (Sino Biologics) with an N-terminal 6His tag (human, UniProt P02786 89-760, biotinylated (sites not given))
# T1 construct: extracellular domain; also called hCD71; huCD71
# T1 sequence (P02786 other isoform, or with tags, fused parts or gaps): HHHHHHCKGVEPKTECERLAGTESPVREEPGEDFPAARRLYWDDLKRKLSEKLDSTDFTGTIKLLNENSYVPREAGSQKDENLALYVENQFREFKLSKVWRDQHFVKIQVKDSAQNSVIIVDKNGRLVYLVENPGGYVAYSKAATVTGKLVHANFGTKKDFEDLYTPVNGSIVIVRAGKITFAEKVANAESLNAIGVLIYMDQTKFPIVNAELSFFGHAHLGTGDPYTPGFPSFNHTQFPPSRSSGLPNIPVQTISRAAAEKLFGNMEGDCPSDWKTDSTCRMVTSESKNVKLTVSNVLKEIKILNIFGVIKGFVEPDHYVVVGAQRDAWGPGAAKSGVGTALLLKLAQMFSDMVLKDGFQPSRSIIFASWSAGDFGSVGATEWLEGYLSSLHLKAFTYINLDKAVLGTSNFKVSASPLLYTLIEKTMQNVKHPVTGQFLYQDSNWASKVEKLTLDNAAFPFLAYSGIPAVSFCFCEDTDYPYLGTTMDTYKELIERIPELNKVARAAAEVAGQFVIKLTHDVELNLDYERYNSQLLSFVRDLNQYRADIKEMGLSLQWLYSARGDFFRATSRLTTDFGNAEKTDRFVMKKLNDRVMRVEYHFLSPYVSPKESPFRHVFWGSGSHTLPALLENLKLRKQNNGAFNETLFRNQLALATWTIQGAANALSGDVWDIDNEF
# Assay: screening ELISA
row,hCD71,Binder
1,2.78e+06,B1
2,1.68e+06,B2
3,4.28e+06,B3
4,2.76e+06,B4
5,536000,B5
6,1.03e+06,B6
7,2.62e+06,B7
8,1.97e+06,B8
9,2.42e+06,B9
10,2.64e+06,B10
11,1.16e+06,B11
12,2.33e+06,B12
13,484000,B13
14,2.75e+06,B14
15,3.39e+06,B15
16,2.04e+06,B16
17,1.5e+06,B17
18,2.06e+06,B18
19,2.31e+06,B19

row,hCD71,Binder
1,2.16e+06,B20
2,2.58e+06,B21
3,4.18e+06,B22
4,1.77e+06,B23
5,3.19e+06,B24
6,708000,B25
7,2.06e+06,B26
8,2.62e+06,B27
9,2.18e+06,B28
10,707000,B29
11,2.24e+06,B30
12,2.71e+06,B31
13,1.09e+06,B32
14,2.85e+06,B33
15,2.36e+06,B34
16,3.53e+06,B35
17,1.62e+06,B36
18,3.27e+06,B37
19,1.76e+06,B38

# Biological target: T1, recombinant biotinylated CD71 …
# Assay: screening ELISA, ratio
row,hCD71:HSA,Binder
1,670,B1
2,89,B2
3,855,B3
4,836,B4
5,358,B5
6,206,B6
7,748,B7
8,216,B8
9,480,B9
10,41,B10
11,75,B11
12,2220,B12
13,236,B13
14,1170,B14
15,1510,B15
16,648,B16
17,64,B17
18,1520,B18
19,78,B19

row,hCD71:HSA,Binder
1,1310,B20
2,1320,B21
3,1190,B22
4,32,B23
5,2450,B24
6,118,B25
7,1370,B26
8,727,B27
9,910,B28
10,228,B29
11,119,B30
12,986,B31
13,429,B32
14,1060,B33
15,33,B34
16,187,B35
17,33,B36
18,780,B37
19,1260,B38
